# ± gives the uncertainty stated by the source.
# Assay: amyloid nucleation score (Sup35N fusion, yeast selection) (log enrichment); library NNK1; higher = more nucleation; inactive = no reads after selection
# Method in brief: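 The nucleation score is the DiMSum log enrichment of output over input reads, centred on the mode score of non-aggregating sequences. Only sequences with 100 or more input reads were scored, using Illumina sequencing of input and output plasmid inserts. Psi-negative yeast expressing Sup35N fused to peptides of 20 random codons were induced 24 hours with 100 μM copper sulfate and grown 7 days at 30°C on medium lacking adenine and uracil.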
row,Substance,amyloid nucleation score
1,PDVVSTSLILGGLNSPELEH,0.016 ± 0.6
2,CCFSSMNFIS,4.04 ± 0.082
3,LFLFLRMLTFVTCLIMRLRV,-1.73 ± 2.4
4,FELICRW,0.516 ± 1.1
5,IRANLEDVLHIFIPVEGHSR,-0.655 ± 1.1
6,LTMPYAI,inactive
7,FLGLNQLNFWFGAS,7.845 ± 0.045
8,VLEISIDSDRAPMCGRRMDL,0.56 ± 1
9,HCIPLALICGGSSSPVVEYL,0.686 ± 0.43
10,LVPPGSYRSCLSHGRNCYSC,-0.203 ± 0.46
11,RVWYCRGMCRP,-0.239 ± 0.93
12,IIRGVTAGALFYYFSVILLR,-0.214 ± 0.77
13,IVGSVVRGMGLVIIRSTCFW,3.15 ± 0.18
14,WNDWSYHCNF,-0.11 ± 0.27
15,YKGVGPIVIFIQWVYITVNN,4.1 ± 0.11
16,YWARRYLWAGFFI,-0.322 ± 1.1
17,LANLAVHLLGQGETCIQMFL,1.76 ± 0.4
18,WNNVSCIELSSVSWNPDEVG,-0.302 ± 0.3
19,RTRSGRVICNGFPRYSTTAA,inactive
20,VFEADQNENGTTAPSEAQDR,-0.088 ± 0.3
21,GYCTPNDPVIFWDFRVMTGS,-0.544 ± 0.3
22,LRWYTQGMVLLEDRPCRCYN,-1.01 ± 0.41

row,Substance,amyloid nucleation score
1,YENSFGGHYSDESNTRRWEF,1.44 ± 0.36
2,TLSVFREWSCLGMLLGYHNL,inactive
3,WMLVRAACLGIKRKNG,0.759 ± 0.51
4,LFRSRRLVCDMKFHWTFLYR,-0.853 ± 0.5
5,LPSNFCVKLSSTYYQVFG,-2.37 ± 1.8
6,GNSSNAMKFEIHISSDHVAY,0.845 ± 0.14
7,LSNRVLEGFNSSWYISIRGF,-0.434 ± 1.7
8,LLSRFRNCNKFDVRQSLRQN,5.328 ± 0.051
9,GFWAKSPLAGHSYKGYQLWA,1.62 ± 0.57
10,AWRSFIGYRMRVWIGYRGCY,0.186 ± 0.95
11,IQSRDGVSYKQDVWTLGCVL,0.658 ± 0.55
12,TRMGEL,-0.089 ± 0.76
13,NKFYCVI,-0.927 ± 1.4
14,KTTLCM,-0.088 ± 0.39
15,SNPSVNRHFVSSRGWLGKSN,-0.422 ± 1.4
16,SRWPAVVRTLFRSCKV,0.48 ± 0.65
17,STKKLYTILRHWSYDFAESG,-0.509 ± 1.7
18,LWPFKSFGLVPCTV,-0.572 ± 0.69
19,VIGCAGSDLNLRSILCFILC,-0.364 ± 0.28
20,NALASLKVMILDPTMELCCA,0.996 ± 0.9
21,YRALLYFNGIMW,inactive
22,RIDCYW,-0.858 ± 1.1

row,Substance,amyloid nucleation score
1,VLKHCWVGIFAQW,9.006 ± 0.052
2,LGNCTGRRHV,2.42 ± 0.36
3,LHRALGQSSWWARQW,-0.13 ± 1
4,IKATGTRPRIHRYFGNC,-0.173 ± 0.58
5,ITVLSS,1.47 ± 0.46
6,YLASREDDINMDASLLSTHA,1.41 ± 0.66
7,AHRPGMFFRNYVVGDLS,-0.026 ± 0.48
8,SHFLF,0.93 ± 0.7
9,DLYQCVHPMFHVWVCVTAGW,inactive
10,HCMGGNLFLF,-0.463 ± 0.47
11,VRSNRMTAGTGYWGNSTVKD,-0.65 ± 0.56
12,SRDVVSAGYKKCGYGMYCTK,1.11 ± 0.37
13,GCVLFDLSHL,-1.92 ± 2.4
14,CCGCWYIITKPYSNKVRKCA,0.265 ± 0.73
15,RYMSHGIGGTPV,0.142 ± 0.69
16,PNYIRGSIINYILEYSISIN,0.02 ± 0.39
17,YIIYWGAQLSILHENSPSFG,0.354 ± 0.33
18,RCSNLGFKFWR,-0.332 ± 0.39
19,SYEHVGKPCSCGYGVEI,0.735 ± 0.32
20,RNNSVLLLSSYANKRYSPAW,-0.439 ± 0.78
21,ALLWQECYMP,2.26 ± 0.17
22,GNANVKCGVRAISDNRARRI,0.003 ± 0.43

row,Substance,amyloid nucleation score
1,FLDASVDKSLSYPGHIVAFR,-1.57 ± 1.7
2,YFLRHCCPD,-1.8 ± 2.4
3,VDLLFDTNCNSF,inactive
4,TLCFQTISPRRPQLRWTWAH,0.875 ± 0.61
5,ATRRSCNLCLNLEFT,inactive
6,ICWNHTTVGFGMIMVVYYL,1.95 ± 0.091
7,YIVAVEHLLCSVRSYGHGMG,0.724 ± 0.83
8,KMTCSPSH,0.867 ± 0.88
9,NEFVDQFSEHFGRVGEFPAW,-0.316 ± 0.4
10,LGWRSTFCMKYTSQSLSLPR,-0.221 ± 0.58
11,SIPIVL,0.267 ± 0.35
12,HLGGVWLLIHMRRSFPLDIW,0.207 ± 0.7
13,LAMLSNGSFNGLFLLWSRCH,0.525 ± 0.35
14,NFLPRTCMLVARFRRKTYLL,0.879 ± 0.54
15,WCLGMWLLHVLTTETTFKCT,-0.158 ± 0.34
16,FYYGSLPYCVTKRFRDFGNQ,3.02 ± 0.18
17,RIDARILLITCL,-1.51 ± 2.4
18,RISSVT,0.17 ± 0.86
19,IARYSTVYPVPHNCRNHKHS,0.15 ± 1.1
20,SLYLYMGWPSHWVESVLPYG,0.043 ± 0.89

# Source: the supplement of paper PMC12042874
